Assay results reported in PMC3306812 (Molecular Cell, 2012).

Target: full-length OTUB1 (human, UniProt Q96FW1 1-271)
Assay: NMR titration

Chain of full-length OTUB1 (Q96FW1 whole entry): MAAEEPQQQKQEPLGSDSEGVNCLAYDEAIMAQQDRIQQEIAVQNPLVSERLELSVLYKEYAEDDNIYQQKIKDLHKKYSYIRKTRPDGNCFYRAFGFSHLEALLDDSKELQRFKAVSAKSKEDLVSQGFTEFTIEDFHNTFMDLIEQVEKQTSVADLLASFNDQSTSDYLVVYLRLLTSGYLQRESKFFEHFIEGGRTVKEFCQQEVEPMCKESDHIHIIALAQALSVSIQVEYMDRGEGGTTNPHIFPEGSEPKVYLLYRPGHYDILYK

binding result: binds
B1: UBC13 (enzyme, UniProt P61088 1-152, looked up)
chain: MAGLPRRIIKETQRLLAEPVPGIKAEPDESNARYFHVVIAGPQDSPFEGGTFKLELFLPEEYPMAAPKVRFMTKIYHPNVDKLGRICLDILKDKWSPALQIRTVLLSIQALLSAPNPDDPLANDVAEQWKTNEAQAIETARAWTRLYAMNNI
